Consider 4 substances from publication PMC7422833.

In general, stoichiometry N refers to the number of molecules, sites or subunits per partner or assembly.

Holding throughout (assay): SEC; 200 uL of purified protein on a Superdex 200 10/30 column in TBS with 5 mM EDTA, pH 7.4, 0.3 mL/min; elution at 280 nm compared with molecular weight standards (12.4 to 443 kDa) and with refolded reference preparations
The target in assay [1] is recombinant fragment of human SP-A (rfhSP-A) expressed and isolated as a soluble protein using NT* (human).
Assay [2] deals with rfhSP-D expressed and purified without an expression tag using the standard rfhSP-D purification protocol (human).
The target in assay [3] is recombinant fragment of human SP-D (rfhSP-D) expressed and isolated as a soluble protein using NT* (human).
In assay [4] the target is rfhSP-A refolded using the previous refolding protocol using NTwt (human).

For “recombinant fragment of human SP-A (rfhSP-A) expressed and isolated as a soluble protein using NT* (domain or fragment)”, in assay [1], the percent of the protein eluting at the volume of the trimer came to 24% and the stoichiometry N is 3.

Consider “rfhSP-D expressed and purified without an expression tag using the standard rfhSP-D purification protocol (domain or fragment)”, for which, in assay [2], the stoichiometry N was 3.

As for “recombinant fragment of human SP-D (rfhSP-D) expressed and isolated as a soluble protein using NT* (domain or fragment)”, in assay [3], the percent of the protein eluting at the volume of the trimer stood at 88.5% and the stoichiometry N turned out to be 3.

With “rfhSP-A refolded using the previous refolding protocol using NTwt (domain or fragment)”, in assay [4], the stoichiometry N worked out at 3.
